Data published in the supplement of paper PMC10567573.
± gives the standard deviation.

Experiment: protein stability index of a GFP-peptide fusion (GPS, HEK-293T) (PSI 1-6); higher = more stable
[1] = treatment: DMSO, c terminus: a fixed tail appended
[2] = treatment: MLN4924 1 uM, 8 h, c terminus: a fixed tail appended
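Note: 24-mer peptide tiles fused after GFP, lentivirally expressed, FACS-sorted into six equal bins by GFP/DsRed ratio, decoded by Illumina sequencing, PSI is the read-weighted mean bin number.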

Sequence	protein stability index [1]	protein stability index [2]	protein stability index (treatment: DMSO, c terminus: native)	protein stability index (treatment: MLN4924 1 uM, 8 h, c terminus: native)
QSQLICILKRRSDEALERCQILEL [CCDC89]	2.52 ± 0.14	2.04 ± 0.44		
PVIEELTNAGFLQTESELQELSEV [FAN1]	4.87 ± 0.1	4.92 ± 0.16		
HKQLLLFHNAVSAYFAGNQKQLEQ [ARFIP2]	2.19 ± 0.45	2.17 ± 0.18		
VDATLEHVQDPQNTVKVQVLYPDG [INTS4]	4.37 ± 0.12	4.49 ± 0.15		
HCNLFVYSSSKGSLRLCDMRAAAL [PPP2R2C]	2.6 ± 0.69	2.63 ± 0.35		
VKEWFGLGGEQAEEKAFESVIEPV [MIA2]	4.23 ± 0.23	4.04 ± 0.15		
EMYQVSRLQHICELFIITQLQSMP [RHOBTB3]	2.21 ± 0.23	2.16 ± 0.44		
QEELPALLKALVSELSEHLRDPLT [FCHSD1]	2.13 ± 0.31	2.25 ± 0.071		
TLSFIVDGQYLGVAFRGLKGKKLY [SPSB4]	2.16 ± 0.41	2.31 ± 0.31		
VCMDLRANLKQVKKEDTEKERDLR [TNNI2]	4.71 ± 0.18	4.77 ± 0.4		
PIRSRRALPPLRTRSKSDPVLHPS [FAM189A2]	4.9 ± 0.17	4.94 ± 0.16		
VLYPDGQAQMIHPKPADFRNPGPG [INTS4]	3.59 ± 0.098	3.67 ± 0.3		
IYGGELGPMMKLKRHFVAQKYKKQ [ACSBG2]	2.49 ± 0.2	2.85 ± 0.25		
ELVLEQQLDREAQARHQLVLTAVD [PCDHGC5]	3.99 ± 0.15	4.103 ± 0.038		
VAEPLAGPACVTVILPSCVPYNK [KLHL14]			2.32 ± 0.37	2.36 ± 0.32
WTHVTLLIVVTQSHLVIHNLFEGM [CDS2]	3.22 ± 0.23	3.34 ± 0.35		
RVRRFQVVEVTKGILEHVDSASPV [M1AP]	3.36 ± 0.2	3.37 ± 0.17		
LAMNYLDRFLAGVPTPKSHLQLLG [CCND2]	2.94 ± 0.61	2.65 ± 0.76		
WGVVSHSFPATLETQEQDVDLVQK [MMP1]	4.58 ± 0.34	4.73 ± 0.43		
PDVVVRSFMTWLRSYIKLFQAPCQ [MED27]	2.06 ± 0.19	2.12 ± 0.28		
GGGGAPRGRYGPPSRRSENRVVVS [SRSF1]	4.36 ± 0.16	4.29 ± 0.12		
RNRPSFDAILYYYQSGGRLKRPVN [KCNA4]	2.08 ± 0.27	2.42 ± 0.5		

Sequence	protein stability index [1]	protein stability index [2]	protein stability index (treatment: DMSO, c terminus: native)	protein stability index (treatment: MLN4924 1 uM, 8 h, c terminus: native)
GVKISEQQAEKILKSMDKNGTMTI [SLC25A25]	3.73 ± 0.13	3.7 ± 0.22		
YDRVAQLDQLLHYRKKSAEFPDFY [CHGB]	2.72 ± 0.14	2.8 ± 0.21		
ILREELQKQRLREILEQQQQERND [ZNF277]	4.4 ± 0.51	4.32 ± 0.33		
LDDRKNEEDGGADEHEHPLTSELD [MIA2]	5.76 ± 0.12	5.26 ± 0.38		
LESELLRGTQYSSLDSLDGLSLTD [PSD2]	4.53 ± 0.22	4.73 ± 0.21		
FDTNAEGCILQWKKIYCRICMAQI [ZBED1]	2.39 ± 0.65	2.04 ± 0.079		
LRSAGVEQLMYIKEDLIIPHHHSF [FAM50A]	2.38 ± 0.35	2.37 ± 0.25		
ELEGLIADPDEMRMQALLIRERIL [FEM1C]	2.54 ± 0.48	2.65 ± 0.43		
GDTKRATPIEVLCENFPEMATYLR [CSNK1G3]	3.04 ± 0.33	2.97 ± 0.38		
ILESSQTLLSVLKREAGNLTKATA [SSNA1]	2.69 ± 0.46	2.99 ± 0.29		
VTSQQEPQIPVDRGSETTYESSAD [TAF7L]	5.21 ± 0.25	5.52 ± 0.23		
PPHREGEAAGGDHETESTSDKETD [CDS1]	5.67 ± 0.31	5.58 ± 0.57		
LKEFDLDALLGIDDLETMPDDLLT [ATF4]	3.81 ± 0.2	4.05 ± 0.38		
APNSLSAPTMLHNSSGDFSQAHST [TRAF3IP2]	4.84 ± 0.14	4.78 ± 0.28		
PGPGSGPGSGPGHGSGSHPGPASG [SPAG8]	5.08 ± 0.3	4.97 ± 0.26		
PRGQEGSRQDKPLSPAGSSQEAAD [YJU2B]	5.54 ± 0.079	5.48 ± 0.2		
TCGGGVQFSSRDCTRPVPRNGGKY [ADAMTS4]	4.19 ± 0.33	3.94 ± 0.65		
TPAFMFRLDASTSHQNLRVDDLSV [FSD1]	2.9 ± 0.28	3.07 ± 0.31		
TLALEYTYGRRAKGHNTPKDIAHF [DYNC2LI1]	2.74 ± 0.071	2.83 ± 0.22		
PSVPCTPAPQVGTQIRTITEEIRD [KRT36]	5.07 ± 0.36	5.22 ± 0.24		
VFDSEKCVSIPDVVGWFVLFYKPG [GULP1]	2.8 ± 1	2.83 ± 0.33		
VRDQISHCTVKLRQTTGLMEYCLE [TRIM9]	2.59 ± 0.31	2.65 ± 0.36		
